Tests used:
[1] = target: Plasmodium falciparum actin I (unlabeled) (Plasmodium falciparum) (UniProt Q8I4X0); experiment: co-sedimentation; pelleting assay: unlabeled actin polymerized overnight at 22 °C in F-buffer (50 mM KCl, 4 mM MgCl2, 1 mM EGTA), ultracentrifugation at 434,500 g or 100,000 g, 20 °C, 1 h; supernatant and pellet by SDS-PAGE densitometry; also at different actin concentrations
[2] = target: Plasmodium falciparum actin I (unlabeled) (Plasmodium falciparum) (UniProt Q8I4X0); experiment: native gel or EMSA; native PAGE of 25 µM polymerized PfActI with and without ultracentrifugation at 434,500 g; running buffer with sample-matched ATP:ADP ratio and 0.1 mM MgCl2; SYPRO Orange, densitometry
[3] = target: Plasmodium falciparum actin I, pyrene-labeled (Plasmodium falciparum) (UniProt Q8I4X0); experiment: dilution-induced depolymerization (pyrene fluorescence); 30% pyrene-labeled actins, 5 µM polymerized overnight, diluted 100-fold to 50 nM in F-buffer; single-phase exponential decay fit
[4] = target: Plasmodium falciparum actin I, pyrene-labeled (Plasmodium falciparum) (UniProt Q8I4X0); experiment: other fluorescence titration; steady-state critical concentration in F-buffer: pyrene-labeled actin polymerized, diluted to a series of concentrations up to 5 µM, 16 h at 20 °C (methods: overnight at 22 °C); two-line fit of pyrene fluorescence
[5] = target: Plasmodium falciparum actin I, pyrene-labeled (Plasmodium falciparum) (UniProt Q8I4X0); experiment: other fluorescence titration; steady-state critical concentration in classical non-polymerizing buffer (G-buffer): pyrene-labeled PfActI, 16 h at 20 °C; two-line fit of pyrene fluorescence

% of total protein in the pellet (100,000 g) [1]	% of total protein in the pellet (434,500 g) [1]	% of total band intensity as dimers [2]	% of total band intensity as polymers [2]	monomer concentration left at steady state (from the monomer band) [2]	stoichiometry N [2]	apparent rate constant of depolymerization (single-phase decay) [3]	depolymerization rate constant adjusted by filament concentration (100 nm filament length assumed) [3]	half-time of depolymerization [3]	Cc (critical concentration, F-buffer, the experiment shown) [4]	Cc (critical concentration, steady state, F-buffer) [4]	Cc (critical concentration, G-buffer, the experiment shown) [5]	Cc (critical concentration, steady state, G-buffer) [5]	Substance
60%	70%	56.2%	43.4%	0.11 µM	2	–	–	–	–	–	–	–	Plasmodium falciparum actin I (unlabeled) (from UniProt Q8I4X0 1-376) (natural protein)
–	–	–	–	–	–	0.0093 s⁻¹	0.4 s⁻¹	74 s	0.13 µM	0.11 µM	0.04 µM	0.06 µM	Plasmodium falciparum actin I, pyrene-labeled (from UniProt Q8I4X0 1-376) (natural protein)

— article PMC5610305
